Experimental data: patent publication US20160177307

What was measured:
[1] = target: PDGF-BB (platelet-derived growth factor BB) (Homo sapiens) (UniProt P01127); experiment: cell_activity
[2] = target: PDGF-BB (platelet-derived growth factor BB) (Homo sapiens) (UniProt P01127); experiment: filter
[3] = target: PDGF-BB (platelet-derived growth factor BB) (Homo sapiens) (UniProt P01127); experiment: competition
[4] = system: T1, VEGF-121 (Homo sapiens), P15692-9; experiment: filter
T1 sequence: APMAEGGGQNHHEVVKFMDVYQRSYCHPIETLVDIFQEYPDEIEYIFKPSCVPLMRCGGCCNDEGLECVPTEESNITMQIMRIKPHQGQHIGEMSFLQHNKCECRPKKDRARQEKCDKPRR

[5] = target: PDGF-AB (UniProt P04085+P01127); experiment: filter
[6] = system: T2, VEGF-165 (Homo sapiens), P15692-4; experiment: filter
T2 sequence: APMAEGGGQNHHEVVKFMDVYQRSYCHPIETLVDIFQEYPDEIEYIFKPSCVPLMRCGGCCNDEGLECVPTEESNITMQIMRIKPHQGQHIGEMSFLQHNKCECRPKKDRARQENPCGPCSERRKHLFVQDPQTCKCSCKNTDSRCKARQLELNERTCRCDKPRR

[7] = system: T1, VEGF-121 (Homo sapiens), P15692-9; experiment: cell_activity; details: NapdU at P; VEGFR2 phosphorylation, HUVEC
[8] = system: T3, rVEGF164, P16612-2; experiment: filter; details: rest DNA, SB18T, 37 C
T3 sequence: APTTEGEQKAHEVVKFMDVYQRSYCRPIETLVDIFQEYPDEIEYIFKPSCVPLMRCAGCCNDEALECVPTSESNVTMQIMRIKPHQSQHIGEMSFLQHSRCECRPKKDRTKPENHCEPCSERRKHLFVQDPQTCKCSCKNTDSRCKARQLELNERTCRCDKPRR

[9] = NapdU at P, C3 spacer 15,18, specificity control
[10] = VEGF-PDGF heterodimer, no Heg linker, NapdU, BndU
[11] = NapdU at 6,7,12,15,16,18,23,24,25,29, rest DNA, SB18T, 37 C
[12] = BndU at 1,2,7,8,16,17,18,20, Heg at 5, 2'-OMe A3,A11,A21,G24
[13] = Z BndU, P NapdU, 2'-OMe at superscript-1 positions, C3 spacers, three Heg linkers
[14] = all P are NapdU, rest DNA, SB18T, 37 C

Chain of PDGF-BB (platelet-derived growth factor BB) (Homo sapiens) (P01127 82-190): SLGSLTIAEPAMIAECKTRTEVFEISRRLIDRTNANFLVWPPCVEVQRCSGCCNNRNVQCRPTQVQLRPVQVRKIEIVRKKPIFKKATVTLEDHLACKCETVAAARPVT
Chain of PDGF-AB (P01127 82-190, chain 2 of 2, other chains not shown): as the sequence (P01127 82-190) above

CGACAGCATGTATGCACATCT [5169-4_85] was tested, and the IC50 ([1]; NapdU at P, 2'-OMe 1,4,6,7,11,14-18,20,21, PDGFRb phosphorylation, Hs27) was 7.3 nM and the Kd ([2]; NapdU at P, 2'-OMe 1,4,6,7,11,14-18,20,21) was 0.0062 nM.

In the case of “CGACAGCATGTATGCACATCTCGACAGCATGTATGCACATCT [5169-4_134]”, the Ki ([3]; Nap-dU, head-to-tail dimer, no linker) is reported as 0.028 nM.

“CCGTTCAAGTGCTTTAGATTTAAATGG [4867-31_183]” gave a Kd [2, 9] of 195 nM, a Kd ([4]; NapdU at P, C3 spacer 15,18) of 0.091 nM and a Kd [5, 9] of 14.5 nM. It also gave a Kd ([6]; Nap-dU, C3 spacer at 15 and 18, VEGF) of 0.138 nM.

“CCGTTCAAGTGCTTTAGATTTAAATGGTTACGTTACACGCGTTTATAGC [4149-8_313]” was tested, and the Kd [2, 10] was 0.0933 nM, the Kd [4, 10] was 4.31 nM and the Kd [5, 10] was 0.165 nM. It also gave a Kd ([6]; Nap-dU (VEGF part), Bn-dU (PDGF part), C3, Heg, 2'-OMe, VEGF) of 0.258 nM.

“TTACGTTACACGCGTTTATAGCGCCGTTCAAGTGCTTTAGATTTAAATG [4149-8_318]” showed a Kd ([2]; PDGF-1Heg-VEGF, NapdU, BndU) of 0.0431 nM, a Kd ([4]; PDGF-1Heg-VEGF, NapdU, BndU) of 2.47 nM and a Kd ([5]; PDGF-1Heg-VEGF, NapdU, BndU) of 0.0818 nM. The Kd ([6]; Bn-dU, Nap-dU, C3, 1 Heg linker, 2'-OMe, VEGF) was 0.27 nM.

Sequence “AGCCGTTCAAGTGCTTGTAGGATTTAAATGGA [4867-31_43]” has an IC50 [7] of 2.2 nM, a Kd [4, 11] of 0.29 nM and a Kd [6, 11] of 0.05 nM. The Kd ([8]; NapdU at 6,7,12,15,16,18,23,24,25,29) was 0.05 nM.

Work on TTACGTTACACGCGTTTATAGCG [4149-8_130] yielded a Kd [2, 12] of 0.0759 nM and a Kd [5, 12] of 0.141 nM.

Work on “CCGTTCAAGTGCTTTAGATTTAAATGGTTACGTTACACGCGTTTATAGC [4149-8_315]” yielded a Kd ([2]; VEGF-2Heg-PDGF, NapdU, BndU) of 0.119 nM, a Kd ([4]; VEGF-2Heg-PDGF, NapdU, BndU) of 0.758 nM and a Kd ([5]; VEGF-2Heg-PDGF, NapdU, BndU) of 0.123 nM. The Kd ([6]; Nap-dU, Bn-dU, C3, 2 Heg linker, 2'-OMe, VEGF) was 0.086 nM.

In the case of CGACAGCATGTATGCACATCT [5169-4_112], the IC50 ([1]; NapdU at 9,11,13,19, 2'-OMe G14,A16 and 2'-OMe-NapU21, inhibition of PDGFRbeta phosphorylation) is reported as 1 nM and the Kd ([2]; NapdU at P, 2'-OMe 14,16,21) is reported as 0.0062 nM.

With “TTACGTTACACGCGTTTATAGCGCCGTTCAAGTGCTTTAGATTTAAATG [4149-8_320]” the Kd [2, 13] was 0.015 nM, the Kd [4, 13] was 0.422 nM and the Kd ([5]; PDGF-3Heg-VEGF, NapdU, BndU) was 0.0493 nM. For the same sequence, the Kd ([6]; PDGF-3Heg-VEGF, NapdU, BndU) was 0.0768 nM.

“CCGTTCAAGTGCTTTAGATTTAAATGGTTACGTTACACGCGTTTATAGC [4149-8_316]” showed a Kd ([2]; VEGF-3Heg-PDGF, NapdU, BndU) of 0.0897 nM, a Kd ([4]; VEGF-3Heg-PDGF, NapdU, BndU) of 0.5 nM and a Kd ([5]; VEGF-3Heg-PDGF, NapdU, BndU) of 0.137 nM. It also gave a Kd ([6]; Nap-dU, Bn-dU, C3, 3 Heg linker, 2'-OMe, VEGF) of 0.157 nM.

For “CAGCCGTTCAAGTGCTTGTAGGATTTAAATGGA [4867-31_42]”, the Kd [4, 14] was 0.2 nM, the Kd [6, 14] was 0.071 nM and the Kd ([8]; all P are NapdU) was 0.05 nM.

“CAGCCGTTCAAGTGCTTGTAGGATTTAAAT [4867-31_46]” showed a Kd [6, 14] of 5.9 nM and a Kd ([8]; all P are NapdU) of 9.6 nM.

CGACAGCATGTATGCACATCT [5169-4_26] showed an IC50 ([1]; NapdU (5-(N-naphthylmethylcarboxamide)-2'-deoxyuridine) at 9,11,13,19,21, rest DNA, inhibition of PDGFRbeta phosphorylation) of 1.6 nM and a Kd ([2]; NapdU (5-(N-naphthylmethylcarboxamide)-2'-deoxyuridine) at 9,11,13,19,21, rest DNA, SB18T, 37 C) of 0.017 nM.

“CCGTTCAAGTGCTTTAGATTTAAATGGTTACGTTACACGCGTTTATAGC [4149-8_314]” was tested, and the Kd ([2]; VEGF-1Heg-PDGF, NapdU, BndU) was 0.136 nM, the Kd ([4]; VEGF-1Heg-PDGF, NapdU, BndU) was 1.55 nM and the Kd ([5]; VEGF-1Heg-PDGF, NapdU, BndU) was 0.111 nM. The Kd ([6]; Nap-dU, Bn-dU, C3, 1 Heg linker, 2'-OMe, VEGF) was 0.143 nM.

Work on CGACAGCATGTATGCACATCT [5169-4_188] yielded a Ki ([3]; as 5169-4_146 plus PS 3' of 4,9,10,11,12, 3'-idT, competition with 32P ligand, SB18T, 37 C) of 0.0086 nM.
